Results reported in article PMC8609353.

Legend:
[1] = biological target: N1 NA head domain from A/Michigan/45/2015 (H1N1), obtained from N1-MPP by thrombin cleavage (influenza A virus A/Michigan/45/2015 (H1N1)); assay: crystal structure; N1 head after thrombin removal of the MPP domain; sitting drop, 0.2 M calcium acetate, 20% PEG 3350, 20°C; 2.90 Å
[2] = biological target: N1-MPP: recombinant N1 neuraminidase head domain of A/Michigan/45/2015 (H1N1) fused to the measles virus phosphoprotein tetramerization domain (measles virus | influenza A virus A/Michigan/45/2015 (H1N1)); assay: cross-linking
[3] = biological target: N1-SPP: recombinant N1 neuraminidase head domain of A/Michigan/45/2015 (H1N1) fused to the Sendai virus phosphoprotein tetramerization domain (Sendai virus | influenza A virus A/Michigan/45/2015 (H1N1)); assay: cross-linking
[4] = biological target: N1-VASP: recombinant N1 neuraminidase head domain of A/Michigan/45/2015 (H1N1) fused to the vasodilator-stimulated phosphoprotein tetramerization domain (human | influenza A virus A/Michigan/45/2015 (H1N1)); assay: cross-linking

Substance: N1 NA head domain from A/Michigan/45/2015 (H1N1), obtained from N1-MPP by thrombin cleavage (domain or fragment)
- stoichiometry N [1]: 4

Substance: N1-MPP: recombinant N1 neuraminidase head domain of A/Michigan/45/2015 (H1N1) fused to the measles virus phosphoprotein tetramerization domain
- stoichiometry N [2]: 4

Substance: N1-SPP: recombinant N1 neuraminidase head domain of A/Michigan/45/2015 (H1N1) fused to the Sendai virus phosphoprotein tetramerization domain
- stoichiometry N [3]: 4

Substance: N1-VASP: recombinant N1 neuraminidase head domain of A/Michigan/45/2015 (H1N1) fused to the vasodilator-stimulated phosphoprotein tetramerization domain
- stoichiometry N [4]: 4
